Biological target: glucagon receptor
Experiment: cell-based or functional assay

Row | In Vitro EC50 (cAMP release, HEK293 cells stably expressing the glucagon receptor, cAMP ELISA) [nM] | Binder
1 | 1.45 | HSQGTFTSDYSKYLDSRRAQDFVQWLMNTC [PB-740]
2 | 6.94 | HSQGTFTSDYSKYLDSRRAQDFVQWLMNTC (not fully specified; mPEG-23 KD-ppMAL conjugated to PB-740 (cysteine added after the 29th amino acid)) [PB-721]
